Source: a protein production outcome set (Wang et al. 2014)

Assay: label from the status in PepcDB records

With “MSRFHWLWPWRSSTSLRVTTVLRLGADQPAIVAAARASQACTRSPRTTRDAMAMHTNGSVFAGWDGSVIQAQQLQHQLAQRVLLHDEVSATPQLLAGFDVGFEDDGQTTRAAAVLLDAHTLLPLETHVARAPTSMPYVPGLLSFRELPALLQALARLSRTPDLVFIDGQGIAHPRRLGIAAHFGVVTGLPCIGIAKQRLAGSFAEPGPERGDHTPILLGGAQIGWALRSKPRCNPLIVSPGHCVSMQGALGWTLRTLRSYRLPEPTRLADRLASRRGKMPALAADTPLLF” as the sequence, how does the protein production read?
The protein production was “failed”.

With “MSRGPLDPRAPLYKAVQIARRRAAEEGDSSWRVVAQAVEELARRVERLYELASRHGLSKPFWLSPRVLEVLRSVEDGDKGGAIERARSLSESLIPAGLAGEYSLATGTAARVLASIIFLASAAYIGVEGIQAPSTPAAVTTLALASFALAALLAASTHYSLYLLAVSTGASLAIATAYRPVVDSYSILMALYSAVLGFAAAAYSSYTRRKFYRMLRMLERGM” as the sequence, how does the protein production read?
Its protein production is “failed”.

Which protein production does the source give for “MSRIGKLLLGIVNLGPIGFMAVAVYRHGDLPASAVAVQVAVVAVLLGIYLRHLAGNDQLTRGLRRGWALVLLAGNWAVFPVYWHQFVWQDPRER” here?
Its protein production is “failed”.

With “MSRINKFVLTVSLLIFIMISAVACGIYTQMVKERVYSLKQSVIDTAFAVANIAEYRRSVAIDLINTLNPTEEQLLVGLRTAYADSVSPSYLYDVGPYLISSDECIQVKEFEKNYCADIMQVVKYRHVKNTGFISFDGKTFVYYLYPVTHNRSLIFLLGLERFSLLSKSLAMDSENLMFSLFKNGKPVTGDEYNAKNAIFTVSEAMEHFAYLPTGLYVFAYKKDVYLRVCTLIIFFAALVAVISGASCLYLVRRVINRGIVEKEAIINNHFERVLDGGLFFSAADVKKLYSMYNSAFLDDLTKAMGRKSFDEDLKALPEKGGYLCLFDVDKFKNINDTFGHLLGDEVLMKVVKILKSQIPVDKGKVYRFGGDEFAVIYTGGTLEELLSILKEIVHFQVGSINLSTSIGVAHSNECPTVERLKMLADERLYKSKKNGRAQISWQ” as the sequence, how does the protein production read?
The protein production was “failed”.

For “MSRKTMNPTTVTQQLQKTYQAVGDGLLSEAFGLVRASVPSQQSHFLTRIDDLENVYRQLLSYFAQGVKDEKQAEMLLYLKRKLIGLAAEVHRESVVAQGTGLFYDRLRYRRSIGFESLVTLLEQAETSTVRKQFDELVRLIFDSLWTADALTDEEAAALSHAGEYIRLVAASALTMALQQQWHSKKLYFLLEELARPDITADYRARLLVGVVLTLRSYPHHTRLYYNEIALRLEAVNEHIPLEPTLEMLSIRFLFACETESITKHLQTELFSDIQKIAPDLRKFGMGDTESIQETGNPEWMEELEKSGLGDKIREFSELQLEGADVMHSSFMNLKGSSFFREMHNWFLPFDAAHSRIAPLLEENAVLKQLVEAIGPQLCNSDRYSFIVSMESLPAALRGSAMGAVGGELDALKEQIKQDVPVGETGKLDTAIKSYLQDLYRFYKVCERKNEFDDIFLSPIPPDLPVLDRYLYKRDTLLHTAEFLFRRKHYDRAAKLLADLAEGKESATDTTLHQKLGFSLQQQGLFAQALAAYSRAELIDTENEWLLKRMAHCYRQLCRPAEAAEIYERLFERNPHEATLLLQRGNALVEDSRYDEALQCFFRYEFSVDDASKARRPIAWCLFLTGQYERAGDYYRTILESDDLSTFTDRLNAGHTSLAMGQIPVAIDHYLAGLKLTPNGKDEFLAAYTADIPVLLKAGIEDAVIRLIPEVLRLHPN”, which protein production is on record?
Its protein production is “failed”.

Which protein production does the source give for “MSRKYLIRITELERLLSEQAEALRQKDQQLSLVEETEAFLRSALARAEEKIEEEEREIEHLRAQIEKLRRMLFGTRSEKLQREVEQAEAQLKQREQESDRYSGREDDPQVPRQLRQSRHRRPLPAHLPREIHRLEPEESCCPECGSELDYLGEVSAEQLELVSSALKVIRTVRVKKACTKCDCIVEAPAPSRPIERGIAGSGLLARVLTGKYCEHLPLYRQSEIFARQGIELSRALLSNWVDACCQLMTLLNDTLYRYVMNTRKVHTDDTPVKVLAPGRKKAKTGRIWTYVRDDRNAGSSEPPAVWFAYSPDRQGKHPVQHLRPFRGILQADAFSGYDRLFSAEREGGALTEVACWAHARRKIHDVYISSKSATAEEALKRISELYAIEDEIRGLPESERLAVRQQRSKVLLTSLHEWMVEKNGTLSKKSRLGEACSYVLNQWDALCYYSDDGLAEADNNAAERALRAVCLGKKNFMFFGSDHGGERGALLYGLIGTCRLNGIDPEAYLRHILSVLPEWPSNRVDELLPWNVVLTNK” here?
Its protein production is “failed”.

Which protein production does the source give for “MSRLEGKIAIVTGASSGIGRAAAALCTRGGKGRRYRPQRECTCGAYTRSPEGAVRRQRLPATWATKPCEALVELAVRRFGGLDTAFNNAGARCDGRDLVARRRLARDARYQSDAPSWRRNIRFRQLRHWAAVRSPTSSFVGHTAGFAGVAPYAASKAGDRTGAGAGGRTRRARHSRERAAAAAPTRLPISRTCRERRPRRAVSEGLHALKRIARPEEIAEAALYLAGRCLRDRRCAAGRRRRFGDEGV” here?
Its protein production is “not failed”.
